In patent US20210032299A1 (Eli Lilly, published 2021):
Starred links: 1 amine or outer side, 2 acyl side, 3 side chain; linkers in the order of their positions; H or OH if unused. Non-standard residues stand in square brackets, D forms with d. Groups on a side chain read outwards from the residue. No end group written: not given here. *: point of attachment. C20 diacid = O=C(O)CCCCCCCCCCCCCCCCCCC(=O)*; αMePhe(2-F) = C[C@](N)(Cc1ccccc1F)C(=O)O; γGlu = O=C(O)[C@H](CCC(=O)[*:2])N[*:1]; αMeF = C[C@](N)(Cc1ccccc1)C(=O)O; AEEA = NCCOCCOCC(=O)O; Aib = CC(C)(N)C(=O)O

T1: human glucose-dependent insulinotropic polypeptide (GIP) receptor (human, UniProt P48546 22-466)
T1 construct: whole, on cells; Assayed as crude membranes of stably transfected CHO cells; also called hGIPR; human GIP receptor
T1 sequence (looked up): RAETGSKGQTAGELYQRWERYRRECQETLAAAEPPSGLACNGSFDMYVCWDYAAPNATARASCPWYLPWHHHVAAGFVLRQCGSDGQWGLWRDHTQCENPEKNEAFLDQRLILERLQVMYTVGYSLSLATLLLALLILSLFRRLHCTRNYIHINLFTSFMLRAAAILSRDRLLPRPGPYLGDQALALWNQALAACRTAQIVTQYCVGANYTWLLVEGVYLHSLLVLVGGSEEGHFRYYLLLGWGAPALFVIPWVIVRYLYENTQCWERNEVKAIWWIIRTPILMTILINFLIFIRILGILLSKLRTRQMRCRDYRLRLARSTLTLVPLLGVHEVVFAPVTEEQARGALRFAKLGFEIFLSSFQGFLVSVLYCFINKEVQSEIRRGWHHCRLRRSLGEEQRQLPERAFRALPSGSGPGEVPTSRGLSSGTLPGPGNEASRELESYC

B1: Example 25 (peptide)
peptide: Y[Aib]EGT[αMeF]ISDYSIALDKK([AEEA-AEEA-γGlu-C20 diacid])HQ[Aib]EFVNWLLAGGPSSGAPPPS-NH2
modifications: N-terminus assumed
SMILES: CC[C@H](C)[C@H](NC(=O)[C@H](CO)NC(=O)[C@H](Cc1ccc(O)cc1)NC(=O)[C@H](CC(=O)O)NC(=O)[C@H](CO)NC(=O)[C@@H](NC(=O)[C@](C)(Cc1ccccc1)NC(=O)[C@@H](NC(=O)CNC(=O)[C@H](CCC(=O)O)NC(=O)C(C)(C)NC(=O)[C@@H](N)Cc1ccc(O)cc1)[C@@H](C)O)[C@@H](C)CC)C(=O)N[C@@H](C)C(=O)N[C@@H](CC(C)C)C(=O)N[C@@H](CC(=O)O)C(=O)N[C@@H](CCCCN)C(=O)N[C@@H](CCCCNC(=O)COCCOCCNC(=O)COCCOCCNC(=O)CC[C@H](NC(=O)CCCCCCCCCCCCCCCCCCC(=O)O)C(=O)O)C(=O)N[C@@H](Cc1c[nH]cn1)C(=O)N[C@@H](CCC(N)=O)C(=O)NC(C)(C)C(=O)N[C@@H](CCC(=O)O)C(=O)N[C@@H](Cc1ccccc1)C(=O)N[C@H](C(=O)N[C@@H](CC(N)=O)C(=O)N[C@@H](Cc1c[nH]c2ccccc12)C(=O)N[C@@H](CC(C)C)C(=O)N[C@@H](CC(C)C)C(=O)N[C@@H](C)C(=O)NCC(=O)NCC(=O)N1CCC[C@H]1C(=O)N[C@@H](CO)C(=O)N[C@@H](CO)C(=O)NCC(=O)N[C@@H](C)C(=O)N1CCC[C@H]1C(=O)N1CCC[C@H]1C(=O)N1CCC[C@H]1C(=O)N[C@@H](CO)C(N)=O)C(C)C
B2: Example 26 (peptide)
peptide: Y[Aib]EGT[αMePhe(2-F)]ISDYSIALDKK([AEEA-AEEA-γGlu-C20 diacid])HQ[Aib]EFVNWLLAGGPSSGAPPPS-NH2
modifications: N-terminus assumed
SMILES: CC[C@H](C)[C@H](NC(=O)[C@H](CO)NC(=O)[C@H](Cc1ccc(O)cc1)NC(=O)[C@H](CC(=O)O)NC(=O)[C@H](CO)NC(=O)[C@@H](NC(=O)[C@](C)(Cc1ccccc1F)NC(=O)[C@@H](NC(=O)CNC(=O)[C@H](CCC(=O)O)NC(=O)C(C)(C)NC(=O)[C@@H](N)Cc1ccc(O)cc1)[C@@H](C)O)[C@@H](C)CC)C(=O)N[C@@H](C)C(=O)N[C@@H](CC(C)C)C(=O)N[C@@H](CC(=O)O)C(=O)N[C@@H](CCCCN)C(=O)N[C@@H](CCCCNC(=O)COCCOCCNC(=O)COCCOCCNC(=O)CC[C@H](NC(=O)CCCCCCCCCCCCCCCCCCC(=O)O)C(=O)O)C(=O)N[C@@H](Cc1c[nH]cn1)C(=O)N[C@@H](CCC(N)=O)C(=O)NC(C)(C)C(=O)N[C@@H](CCC(=O)O)C(=O)N[C@@H](Cc1ccccc1)C(=O)N[C@H](C(=O)N[C@@H](CC(N)=O)C(=O)N[C@@H](Cc1c[nH]c2ccccc12)C(=O)N[C@@H](CC(C)C)C(=O)N[C@@H](CC(C)C)C(=O)N[C@@H](C)C(=O)NCC(=O)NCC(=O)N1CCC[C@H]1C(=O)N[C@@H](CO)C(=O)N[C@@H](CO)C(=O)NCC(=O)N[C@@H](C)C(=O)N1CCC[C@H]1C(=O)N1CCC[C@H]1C(=O)N1CCC[C@H]1C(=O)N[C@@H](CO)C(N)=O)C(C)C
B3: Example 40 (peptide)
peptide: Y[Aib]EGT[αMePhe(2-F)]ISDYSIALDKK([AEEA-AEEA-γGlu-C20 diacid])HQ[Aib]DFVEWLLETGPSSGAPPPS-NH2
modifications: N-terminus assumed
SMILES: CC[C@H](C)[C@H](NC(=O)[C@H](CO)NC(=O)[C@H](Cc1ccc(O)cc1)NC(=O)[C@H](CC(=O)O)NC(=O)[C@H](CO)NC(=O)[C@@H](NC(=O)[C@](C)(Cc1ccccc1F)NC(=O)[C@@H](NC(=O)CNC(=O)[C@H](CCC(=O)O)NC(=O)C(C)(C)NC(=O)[C@@H](N)Cc1ccc(O)cc1)[C@@H](C)O)[C@@H](C)CC)C(=O)N[C@@H](C)C(=O)N[C@@H](CC(C)C)C(=O)N[C@@H](CC(=O)O)C(=O)N[C@@H](CCCCN)C(=O)N[C@@H](CCCCNC(=O)COCCOCCNC(=O)COCCOCCNC(=O)CC[C@H](NC(=O)CCCCCCCCCCCCCCCCCCC(=O)O)C(=O)O)C(=O)N[C@@H](Cc1c[nH]cn1)C(=O)N[C@@H](CCC(N)=O)C(=O)NC(C)(C)C(=O)N[C@@H](CC(=O)O)C(=O)N[C@@H](Cc1ccccc1)C(=O)N[C@H](C(=O)N[C@@H](CCC(=O)O)C(=O)N[C@@H](Cc1c[nH]c2ccccc12)C(=O)N[C@@H](CC(C)C)C(=O)N[C@@H](CC(C)C)C(=O)N[C@@H](CCC(=O)O)C(=O)N[C@H](C(=O)NCC(=O)N1CCC[C@H]1C(=O)N[C@@H](CO)C(=O)N[C@@H](CO)C(=O)NCC(=O)N[C@@H](C)C(=O)N1CCC[C@H]1C(=O)N1CCC[C@H]1C(=O)N1CCC[C@H]1C(=O)N[C@@H](CO)C(N)=O)[C@@H](C)O)C(C)C
B4: Example 37 (peptide)
peptide: Y[Aib]EGT[αMePhe(2-F)]ISDYSIALDKK([AEEA-AEEA-γGlu-C20 diacid])HQ[Aib]DFVEYLLEGGPSSGAPPPS-NH2
modifications: N-terminus assumed
SMILES: CC[C@H](C)[C@H](NC(=O)[C@H](CO)NC(=O)[C@H](Cc1ccc(O)cc1)NC(=O)[C@H](CC(=O)O)NC(=O)[C@H](CO)NC(=O)[C@@H](NC(=O)[C@](C)(Cc1ccccc1F)NC(=O)[C@@H](NC(=O)CNC(=O)[C@H](CCC(=O)O)NC(=O)C(C)(C)NC(=O)[C@@H](N)Cc1ccc(O)cc1)[C@@H](C)O)[C@@H](C)CC)C(=O)N[C@@H](C)C(=O)N[C@@H](CC(C)C)C(=O)N[C@@H](CC(=O)O)C(=O)N[C@@H](CCCCN)C(=O)N[C@@H](CCCCNC(=O)COCCOCCNC(=O)COCCOCCNC(=O)CC[C@H](NC(=O)CCCCCCCCCCCCCCCCCCC(=O)O)C(=O)O)C(=O)N[C@@H](Cc1c[nH]cn1)C(=O)N[C@@H](CCC(N)=O)C(=O)NC(C)(C)C(=O)N[C@@H](CC(=O)O)C(=O)N[C@@H](Cc1ccccc1)C(=O)N[C@H](C(=O)N[C@@H](CCC(=O)O)C(=O)N[C@@H](Cc1ccc(O)cc1)C(=O)N[C@@H](CC(C)C)C(=O)N[C@@H](CC(C)C)C(=O)N[C@@H](CCC(=O)O)C(=O)NCC(=O)NCC(=O)N1CCC[C@H]1C(=O)N[C@@H](CO)C(=O)N[C@@H](CO)C(=O)NCC(=O)N[C@@H](C)C(=O)N1CCC[C@H]1C(=O)N1CCC[C@H]1C(=O)N1CCC[C@H]1C(=O)N[C@@H](CO)C(N)=O)C(C)C
B5: Example 36 (peptide)
peptide: Y[Aib]EGT[αMePhe(2-F)]ISDYSIALDKK([AEEA-AEEA-γGlu-C20 diacid])HQ[Aib]DFVEYLLETGPSSGAPPPS-NH2
modifications: N-terminus assumed
SMILES: CC[C@H](C)[C@H](NC(=O)[C@H](CO)NC(=O)[C@H](Cc1ccc(O)cc1)NC(=O)[C@H](CC(=O)O)NC(=O)[C@H](CO)NC(=O)[C@@H](NC(=O)[C@](C)(Cc1ccccc1F)NC(=O)[C@@H](NC(=O)CNC(=O)[C@H](CCC(=O)O)NC(=O)C(C)(C)NC(=O)[C@@H](N)Cc1ccc(O)cc1)[C@@H](C)O)[C@@H](C)CC)C(=O)N[C@@H](C)C(=O)N[C@@H](CC(C)C)C(=O)N[C@@H](CC(=O)O)C(=O)N[C@@H](CCCCN)C(=O)N[C@@H](CCCCNC(=O)COCCOCCNC(=O)COCCOCCNC(=O)CC[C@H](NC(=O)CCCCCCCCCCCCCCCCCCC(=O)O)C(=O)O)C(=O)N[C@@H](Cc1c[nH]cn1)C(=O)N[C@@H](CCC(N)=O)C(=O)NC(C)(C)C(=O)N[C@@H](CC(=O)O)C(=O)N[C@@H](Cc1ccccc1)C(=O)N[C@H](C(=O)N[C@@H](CCC(=O)O)C(=O)N[C@@H](Cc1ccc(O)cc1)C(=O)N[C@@H](CC(C)C)C(=O)N[C@@H](CC(C)C)C(=O)N[C@@H](CCC(=O)O)C(=O)N[C@H](C(=O)NCC(=O)N1CCC[C@H]1C(=O)N[C@@H](CO)C(=O)N[C@@H](CO)C(=O)NCC(=O)N[C@@H](C)C(=O)N1CCC[C@H]1C(=O)N1CCC[C@H]1C(=O)N1CCC[C@H]1C(=O)N[C@@H](CO)C(N)=O)[C@@H](C)O)C(C)C

Target: T1, human glucose-dependent insulinotropic …
Assay: SPA, displacement of [125I]-GIP from hGIPR membranes, 0.1% bacitracin

Q: How did the Ki turn out when B1 was run?
A: 0.0417 nM

Q: B2 was tested. Which Ki did it give?
A: 0.045 nM

Q: Which Ki does the source give for B3 here?
A: 0.0594 nM

Q: Which Ki does the source give for B4 here?
A: 0.026 nM

Q: How did the Ki turn out when B5 was run?
A: 0.0683 nM

Target: T2, human glucagon receptor (human, UniProt P47871 26-477)
T2 construct: whole, on cells; Assayed as crude membranes of stably transfected HEK293 cells; also called hGcgR; GcgR
T2 sequence (P47871 26-477): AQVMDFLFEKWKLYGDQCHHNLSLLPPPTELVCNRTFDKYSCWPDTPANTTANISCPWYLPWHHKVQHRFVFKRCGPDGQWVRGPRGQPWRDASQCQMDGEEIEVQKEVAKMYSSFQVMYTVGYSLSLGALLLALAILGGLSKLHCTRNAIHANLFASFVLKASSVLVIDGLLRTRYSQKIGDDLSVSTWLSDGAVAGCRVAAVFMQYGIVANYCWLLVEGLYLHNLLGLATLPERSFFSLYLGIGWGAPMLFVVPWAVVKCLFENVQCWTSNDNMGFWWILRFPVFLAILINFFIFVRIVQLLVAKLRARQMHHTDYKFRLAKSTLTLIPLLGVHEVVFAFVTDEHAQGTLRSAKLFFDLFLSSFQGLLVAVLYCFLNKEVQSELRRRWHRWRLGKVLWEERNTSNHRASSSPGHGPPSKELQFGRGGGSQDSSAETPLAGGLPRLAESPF
Assay: SPA, displacement of [125I]-Gcg from hGcgR membranes, 0.1% bacitracin
In short: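 Binding buffer: 25 mM HEPES pH 7.4, 2.5 mM CaCl₂, 1 mM MgCl₂, 0.003% Tween-20, protease inhibitors without EDTA. Counted by scintillation after 12 h incubation/settling at room temperature. Four-parameter nonlinear fit; Kᵢ given as geometric mean ± SEM of independent replicates run on different days.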

Q: How did the Ki turn out when B1 was run?
A: 101 nM

Q: For B2, which Ki is on record?
A: 74.1 nM

Q: B3 was tested. Which Ki did it give?
A: 50.9 nM

Q: How did the Ki turn out when B4 was run?
A: 51.4 nM

Q: Which Ki does the source give for B5 here?
A: 201 nM

Target: T3, human GLP-1 receptor (human, UniProt P43220 24-463)
T3 construct: whole, on cells; Assayed as crude membranes of stably transfected HEK293 cells; also called hGLP1R; hGLP-1R
Assay: SPA, displacement of [125I]-GLP-1 from hGLP-1R membranes, 0.1% bacitracin
In short: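 Binding buffer: 25 mM HEPES pH 7.4, 2.5 mM CaCl₂, 1 mM MgCl₂, 0.1% bacitracin, 0.003% Tween-20, protease inhibitors without EDTA. Four-parameter nonlinear regression; Kᵢ given as geometric mean ± SEM, n = independent replicates run on different days.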

Q: With B1 as the binder, how does the Ki read?
A: 15.8 nM

Q: For B2, which Ki is on record?
A: 16.5 nM

Q: With B3 as the binder, how does the Ki read?
A: 302 nM

Q: With B4 as the binder, how does the Ki read?
A: 83.9 nM

Q: B5 was tested. Which Ki did it give?
A: 393 nM
